Results from patent publication US20230012273A1 (Boehringer Ingelheim, published 2023).
Values belong to the binder of their own block, whether it stands above or below them.

Legend:
[1] = biological target: T1, full-length human SIRPγ (NP_061026.2) on cells (human, UniProt Q9P1W8 29-387); assay: flow cytometry, CHO cells
T1 construct: also called CHO-hSIRPγ; γ WT

[2] = biological target: T2, recombinant human SIRPγ extracellular domain (ECD)/His protein (NP_061026.2) (human, UniProt Q9P1W8 29-360); assay: ELISA, coated SIRPγ ECD/His
T2 construct: coated on ELISA plates; also called recombinant hSIRPγ; not shown: His-tag

[3] = biological target: T3, full-length human SIRPαV2 (CAA71403.1) on cells (human, UniProt P78324 31-504); assay: flow cytometry, competition with CD47 tetramer, CHO-K1 cells; * inhibition plateaus at <100%
T3 construct: one molecule for CHO-K1 and Expi-CHO transfectants (CAA71403.1) and for endogenous V2 on THP-1 cells and on CD14+ monocytes of V2/V2 donors; also called CHO-hSIRPαV2; αV2 WT
Description: Cells are washed, fixed, and analyzed by flow cytometry. Median fluorescent intensity is determined and used as a measure of CD47 binding.

[4] = biological target: T1, full-length human SIRPγ (NP_061026.2) …; assay: flow cytometry, CHO cells; CHO cells expressing hSIRPγ; n = 1
Description: Antibody binding to cells expressing human SIRPγ(NP_061026.2) is evaluated by flow cytometry. SIRPγ-expressing CHO cells are blocked with donkey IgG and incubated on ice with increasing concentrations of antibody for 60 minutes, washed and stained with AF647-conjugated donkey F(ab′)₂ anti-human IgG secondary reagent. Cells are washed, fixed, and analyzed by flow cytometry. Median fluorescent intensity is determined and used as a measure of antibody binding.

[5] = biological target: T4, mouse SIRPα extracellular domain + His-tag (NP_031573) (mouse, UniProt P97797 32-373); assay: SPR, Ab captured, ECD-His analyte
T4 chain: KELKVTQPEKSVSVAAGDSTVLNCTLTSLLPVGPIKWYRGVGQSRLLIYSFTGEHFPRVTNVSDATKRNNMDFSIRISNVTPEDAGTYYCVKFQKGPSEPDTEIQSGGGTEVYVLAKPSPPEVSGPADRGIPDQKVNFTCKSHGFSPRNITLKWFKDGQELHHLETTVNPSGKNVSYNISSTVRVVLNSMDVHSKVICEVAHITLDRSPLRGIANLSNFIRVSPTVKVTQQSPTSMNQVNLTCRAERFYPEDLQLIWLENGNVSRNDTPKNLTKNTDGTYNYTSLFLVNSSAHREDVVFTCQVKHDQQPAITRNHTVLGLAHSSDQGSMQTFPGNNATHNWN
How it was run: (§1)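 SPR; Ab capture surface, ethanolamine-deactivated (1M, 420 s, 10 μl/min). Analyte: SIRP ECD+His, 2-fold dilution series in 1×HBS-EP+. Inject 300 s @ 30 μl/min; dissoc. 600 s.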

[6] = biological target: T5, cynomolgus SIRPα extracellular domain + His-tag (NP_001271679) (cynomolgus monkey); assay: SPR, Ab captured, ECD-His analyte
T5 construct: also called CySIRPα NP_001271679; cynoSIRPα
T5 chain: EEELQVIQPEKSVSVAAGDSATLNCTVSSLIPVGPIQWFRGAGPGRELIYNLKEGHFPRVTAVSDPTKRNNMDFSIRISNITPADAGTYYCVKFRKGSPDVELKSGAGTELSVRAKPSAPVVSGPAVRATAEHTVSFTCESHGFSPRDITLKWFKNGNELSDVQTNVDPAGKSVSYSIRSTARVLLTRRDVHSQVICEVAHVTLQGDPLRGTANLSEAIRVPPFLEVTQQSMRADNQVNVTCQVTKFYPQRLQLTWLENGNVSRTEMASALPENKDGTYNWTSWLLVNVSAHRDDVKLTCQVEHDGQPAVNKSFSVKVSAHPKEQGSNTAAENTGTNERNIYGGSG
How it was run: as §1

[7] = biological target: T6, cynomolgus SIRPα extracellular domain + His-tag (EGM_02252) (cynomolgus monkey); assay: SPR, Ab captured, ECD-His analyte
T6 construct: also called CySIRPα EGM_02252; cynoSIRPα
T6 chain: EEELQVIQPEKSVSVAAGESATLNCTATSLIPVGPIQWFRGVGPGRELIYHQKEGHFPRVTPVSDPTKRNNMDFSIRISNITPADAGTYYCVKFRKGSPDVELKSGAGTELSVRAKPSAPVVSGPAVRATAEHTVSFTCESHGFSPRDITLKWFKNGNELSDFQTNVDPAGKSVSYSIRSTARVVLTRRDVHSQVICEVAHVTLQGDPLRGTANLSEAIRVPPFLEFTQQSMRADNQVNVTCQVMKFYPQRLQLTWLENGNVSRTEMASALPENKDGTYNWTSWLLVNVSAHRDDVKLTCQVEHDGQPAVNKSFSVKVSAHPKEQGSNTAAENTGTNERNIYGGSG
How it was run: as §1

[8] = biological target: T7, cynomolgus SIRPβ1v3 extracellular domain + His-tag (XP_005568593) (cynomolgus monkey); assay: SPR, Ab captured, ECD-His analyte
T7 construct: also called Cyno SIRPβ1v3; cynoSIRPβ1v3
T7 chain: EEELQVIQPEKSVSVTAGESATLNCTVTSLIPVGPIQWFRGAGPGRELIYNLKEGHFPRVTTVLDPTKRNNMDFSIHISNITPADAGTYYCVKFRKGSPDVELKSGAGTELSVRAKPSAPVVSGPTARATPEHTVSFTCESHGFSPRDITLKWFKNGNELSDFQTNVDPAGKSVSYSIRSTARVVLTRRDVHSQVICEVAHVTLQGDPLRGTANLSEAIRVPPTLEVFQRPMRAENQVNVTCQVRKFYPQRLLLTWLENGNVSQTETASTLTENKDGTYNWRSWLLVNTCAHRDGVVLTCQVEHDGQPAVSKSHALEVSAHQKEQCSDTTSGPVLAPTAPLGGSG
How it was run: as §1

B1: Anti-SIRPα antibody KWAR23 (antibody, V domains shown)
VH: EVQLQQSGAELVKPGASVKLSCTASGFNIKDYYIHWVQQRTEQGLEWIGRIDPEDGETKYAPKFQDKATITADTSSNTAYLHLSSLTSEDTAVYYCARWGAYWGQGTLVTVSS
VL: QIVLTQSPAIMSASPGEKVTLTCSASSSVSSSYLYWYQQKPGSSPKLWIYSTSNLASGVPARFSGSGSGTSYSLTISSMEAEDAASYFCHQWSSYPRTFGAGTKLELK
EC50 [1]: 2.7 nM | EC50 [2]: 0.1 nM

B3: Antibody B (antibody, human IgG1, kappa, L234A L235A, V domains shown)
VH: QVQLVQSGAEVKKPGASVKVSCKASGYTFTGNYMHWVRQAPGQGLEWMGWINPNSGGTNYAQKFQGRVTMTRDTSISTAYMELSRLRSDDTAVYYCVSGSGWYENYYYYGMDVWGQGTTVTVSS
VL: DIQMTQSPSSVSASVGDRVTITCRASQGISSWLAWYQQKPGKAPKLLIYAESSLQSGVPSRFSGSGSGTDFTLTISSLQPEDFATYYCQQANSFPLTFGGGTKVEIKR
EC50 [4]: 11.8 nM

Second part, the binder after the results:

IC50 [3]: 0.7 nM
B2: Antibody E (antibody, human IgG1, kappa, L234A L235A)
heavy: not shown
light: DIVMTQSPLSLPVTPGEPASISCKSSQSLLYSNGYNYLDWYLQRPGQSPQLLIYLGSNRASGVPDRFSGSGSGTDFTLKISRVEAEDVGVFYCMQALQTPLTFGGGTKVEIKRTVAAPSVFIFPPSDEQLKSGTASVVCLLNNFYPREAKVQWKVDNALQSGNSQESVTEQDSKDSTYSLSSTLTLSKADYEKHKVYACEVTHQGLSSPVTKSFNRGEC

binding result [5]: no binding | Kd [6]: 453 nM | Kd [7]: 201 nM | Kd [8]: 201 nM
B4: Antibody A (antibody, human IgG1, kappa, L234A L235A)
heavy: not shown
light: DIQMTQSPSSLSASVGDRVTITCRASQDINNYLAWFQQKPGKAPKSLIYTASSLHSGVPSKFSGSGSGTDFTLTISSLQPEDFATYYCQQYVSYPYTFGQGTKLEIKRTVAAPSVFIFPPSDEQLKSGTASVVCLLNNFYPREAKVQWKVDNALQSGNSQESVTEQDSKDSTYSLSSTLTLSKADYEKHKVYACEVTHQGLSSPVTKSFNRGEC
